Measurements reported in patent US20220177602A1 (MacroGenics, published 2022).

Key:
[1] = biological target: T1, soluble recombinant human FcγRIIIa (human, UniProt P08637 17-208, limits assumed); experiment: indirect competitive ELISA, FcγRIIIa coated, competitor MGAH22-Bt, against margetuximab Reference Standard; stored 25 ± 2° C., column head 4 months
T1 construct: Coated on the ELISA plate; also called CD16a; Fcγ Receptor subtype IIIa
Method: (§1) Margetuximab contains point mutations in the Fc-domain that enhance the interaction of the margetuximab constant region with some human Fc receptors, in particular the Fcγ Receptor subtype […] (FcγRIIIa), also referred to as CD16a. The potency of the Fc domain is assessed with an indirect competitive enzyme linked immunosorbent assay (ELISA) essentially as described. The quantification of the binding of margetuximab test article Fc to the FcγRIIIa is measured by its ability to compete against the binding of a biotin-labeled margetuximab competitor sample (MGAH22-Bt). To perform the assay, soluble recombinant human FcγRIIIa is coated to the solid phase (96-well assay plates). A dilution series of margetuximab Test Article (TA) in a constant concentration of MGAH22-Bt is allowed to bind to the immobilized FcγRIIIa. A dilution-series of the test article and of the margetuximab Reference Standard is analyzed in this manner on the same assay plate, in order to generate dose-response curves for both the test article and the margetuximab Reference Standard. […] Oxidation of the added AP substrate by the conjugated AP yields a color product that can be measured at 405±10 nm. The intensity (absorbance) of the color signal is measured using a microplate reader. […] Data are fitted to a constrained four-parameter logistic model to describe absorbance signal as a function of margetuximab concentration. […]

[2] = biological target: T1, soluble recombinant human FcγRIIIa; experiment: indirect competitive ELISA, FcγRIIIa coated, competitor MGAH22-Bt, against margetuximab Reference Standard; stored 25 ± 2° C., column head 5 months
Method: as §1

[3] = biological target: T1, soluble recombinant human FcγRIIIa; experiment: indirect competitive ELISA, FcγRIIIa coated, competitor MGAH22-Bt, against margetuximab Reference Standard; stored 25 ± 2° C., column head 2 months
Method: as §1

[4] = biological target: T1, soluble recombinant human FcγRIIIa; experiment: indirect competitive ELISA, FcγRIIIa coated, competitor MGAH22-Bt, against margetuximab Reference Standard; stored 2-8° C., 33 months
Method: as §1

[5] = biological target: T1, soluble recombinant human FcγRIIIa; experiment: indirect competitive ELISA, FcγRIIIa coated, competitor MGAH22-Bt, against margetuximab Reference Standard; stored 2-8° C., 36 months
Method: as §1

[6] = biological target: T1, soluble recombinant human FcγRIIIa; experiment: indirect competitive ELISA, FcγRIIIa coated, competitor MGAH22-Bt, against margetuximab Reference Standard; stored 2-8° C., 9 months
Method: as §1

[7] = biological target: T1, soluble recombinant human FcγRIIIa; experiment: indirect competitive ELISA, FcγRIIIa coated, competitor MGAH22-Bt, against margetuximab Reference Standard; stored 25 ± 2° C., column head 0 months
Method: as §1

[8] = biological target: T1, soluble recombinant human FcγRIIIa; experiment: indirect competitive ELISA, FcγRIIIa coated, competitor MGAH22-Bt, against margetuximab Reference Standard; stored 25 ± 2° C., column head 3 months
Method: as §1

[9] = biological target: T1, soluble recombinant human FcγRIIIa; experiment: indirect competitive ELISA, FcγRIIIa coated, competitor MGAH22-Bt, against margetuximab Reference Standard; stored 2-8° C., 24 months
Method: as §1

[10] = biological target: T1, soluble recombinant human FcγRIIIa; experiment: indirect competitive ELISA, FcγRIIIa coated, competitor MGAH22-Bt, against margetuximab Reference Standard; stored 2-8° C., 0 months
Method: as §1

[11] = biological target: T1, soluble recombinant human FcγRIIIa; experiment: indirect competitive ELISA, FcγRIIIa coated, competitor MGAH22-Bt, against margetuximab Reference Standard; stored 2-8° C., 6 months
Method: as §1

[12] = biological target: T1, soluble recombinant human FcγRIIIa; experiment: indirect competitive ELISA, FcγRIIIa coated, competitor MGAH22-Bt, against margetuximab Reference Standard; stored 25 ± 2° C., column head 6 months
Method: as §1

[13] = biological target: T1, soluble recombinant human FcγRIIIa; experiment: indirect competitive ELISA, FcγRIIIa coated, competitor MGAH22-Bt, against margetuximab Reference Standard; stored 2-8° C., 3 months
Method: as §1

[14] = biological target: T1, soluble recombinant human FcγRIIIa; experiment: indirect competitive ELISA, FcγRIIIa coated, competitor MGAH22-Bt, against margetuximab Reference Standard; stored 2-8° C., 1 month
Method: as §1

[15] = biological target: T1, soluble recombinant human FcγRIIIa; experiment: indirect competitive ELISA, FcγRIIIa coated, competitor MGAH22-Bt, against margetuximab Reference Standard; stored 2-8° C., 30 months
Method: as §1

[16] = biological target: T1, soluble recombinant human FcγRIIIa; experiment: indirect competitive ELISA, FcγRIIIa coated, competitor MGAH22-Bt, against margetuximab Reference Standard; stored 2-8° C., 12 months
Method: as §1

[17] = biological target: T1, soluble recombinant human FcγRIIIa; experiment: indirect competitive ELISA, FcγRIIIa coated, competitor MGAH22-Bt, against margetuximab Reference Standard; stored 2-8° C., 18 months
Method: as §1

[18] = biological target: T1, soluble recombinant human FcγRIIIa; experiment: indirect competitive ELISA, FcγRIIIa coated, competitor MGAH22-Bt, against margetuximab Reference Standard; stored 2-8° C., 48 months
Method: as §1

[19] = biological target: T1, soluble recombinant human FcγRIIIa; experiment: indirect competitive ELISA, FcγRIIIa coated, competitor MGAH22-Bt, against margetuximab Reference Standard; stored 25 ± 2° C., column head 1 month
Method: as §1

T1 sequence (P08637 17-208 limits assumed): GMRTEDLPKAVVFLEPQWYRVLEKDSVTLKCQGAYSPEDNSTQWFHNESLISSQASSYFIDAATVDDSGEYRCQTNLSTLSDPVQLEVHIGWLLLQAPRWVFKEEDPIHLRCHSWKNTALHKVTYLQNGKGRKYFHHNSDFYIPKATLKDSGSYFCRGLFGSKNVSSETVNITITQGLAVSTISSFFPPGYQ

relative potency by FcγRIIIa Binding ELISA (100% x IC50 Reference Standard/IC50 Test Article) [1]: 104%
relative potency by FcγRIIIa Binding ELISA (100% x IC50 Reference Standard/IC50 Test Article) [2]: 76%
relative potency by FcγRIIIa Binding ELISA (100% x IC50 Reference Standard/IC50 Test Article) [3]: 100%
relative potency by FcγRIIIa Binding ELISA (100% x IC50 Reference Standard/IC50 Test Article) [4]: 107%
relative potency by FcγRIIIa Binding ELISA (100% x IC50 Reference Standard/IC50 Test Article) [5]: 107%
relative potency by FcγRIIIa Binding ELISA (100% x IC50 Reference Standard/IC50 Test Article) [6]: 106%
relative potency by FcγRIIIa Binding ELISA (100% x IC50 Reference Standard/IC50 Test Article) [7]: 76%
relative potency by FcγRIIIa Binding ELISA (100% x IC50 Reference Standard/IC50 Test Article) [8]: 99%
relative potency by FcγRIIIa Binding ELISA (100% x IC50 Reference Standard/IC50 Test Article) [9]: 100%
relative potency by FcγRIIIa Binding ELISA (100% x IC50 Reference Standard/IC50 Test Article) [10]: 76%
relative potency by FcγRIIIa Binding ELISA (100% x IC50 Reference Standard/IC50 Test Article) [11]: 103%
relative potency by FcγRIIIa Binding ELISA (100% x IC50 Reference Standard/IC50 Test Article) [12]: 82%
relative potency by FcγRIIIa Binding ELISA (100% x IC50 Reference Standard/IC50 Test Article) [13]: 92%
relative potency by FcγRIIIa Binding ELISA (100% x IC50 Reference Standard/IC50 Test Article) [14]: 81%
relative potency by FcγRIIIa Binding ELISA (100% x IC50 Reference Standard/IC50 Test Article) [15]: 103%
relative potency by FcγRIIIa Binding ELISA (100% x IC50 Reference Standard/IC50 Test Article) [16]: 110%
relative potency by FcγRIIIa Binding ELISA (100% x IC50 Reference Standard/IC50 Test Article) [17]: 105%
relative potency by FcγRIIIa Binding ELISA (100% x IC50 Reference Standard/IC50 Test Article) [18]: 101%
relative potency by FcγRIIIa Binding ELISA (100% x IC50 Reference Standard/IC50 Test Article) [19]: 82%
B1: margetuximab (antibody, human IgG1, kappa)
heavy: QVQLQQSGPELVKPGASLKLSCTASGFNIKDTYIHWVKQRPEQGLEWIGRIYPTNGYTRYDPKFQDKATITADTSSNTAYLQVSRLTSEDTAVYYCSRWGGDGFYAMDYWGQGASVTVSSASTKGPSVFPLAPSSKSTSGGTAALGCLVKDYFPEPVTVSWNSGALTSGVHTFPAVLQSSGLYSLSSVVTVPSSSLGTQTYICNVNHKPSNTKVDKRVEPKSCDKTHTCPPCPAPELVGGPSVFLLPPKPKDTLMISRTPEVTCVVVDVSHEDPEVKFNWYVDGVEVHNAKTKPPEEQYNSTLRVVSVLTVLHQDWLNGKEYKCKVSNKALPAPIEKTISKAKGQPREPQVYTLPPSRDELTKNQVSLTCLVKGFYPSDIAVEWESNGQPENNYKTTPLVLDSDGSFFLYSKLTVDKSRWQQGNVFSCSVMHEALHNHYTQKSLSLSPGK
light: DIVMTQSHKFMSTSVGDRVSITCKASQDVNTAVAWYQQKPGHSPKLLIYSASFRYTGVPDRFTGSRSGTDFTFTISSVQAEDLAVYYCQQHYTTPPTFGGGTKVEIKRTVAAPSVFIFPPSDEQLKSGTASVVCLLNNFYPREAKVQWKVDNALQSGNSQESVTEQDSKDSTYSLSSTLTLSKADYEKHKVYACEVTHQGLSSPVTKSFNRGEC
notes: Chimeric Fc-optimized IgG1/kappa monoclonal antibody; Tested as drug product Lot A in the F1 formulation after storage; also called MGAH22; Margetuximab DP Lot A; copies: 2 + 2
